From US20020177126A1 (published 2002)
Where a chain is given by its changes, count along the chain named. Values joined by “and” are separate entries in the source; they are usually repeats but may differ in a detail not shown here. Equal values may be shown once.

B1: 1X-493L1FR (Fab) (Fab, V domains shown)
VH: QVTLRESGPALVKPTQTLTLTCTFSGFSLSTSGMSVGWIRQPPGKALEWLADIWWDDKKDYNPSLKSRLTISKDTSKNQVVLKVTNMDPADTATYYCARSMITNWYFDVWGAGTTVTVSS
VL: DIQMTQSPSTLSASVGDRVTITCSASSSVGYMHWYQQKPGKAPKLLIYDTSKLASGVPSRFSGSGSGTEFTLTISSLQPDDFATYYCFQGSGYPFTFGGGTKLEIK
B2: A12a6 (Fab) (Fab, V domains shown)
VH: B1 VH with S32A, D57G, S67D, S100D, T103F, W105F, A112Q
VL: B1 VL with S28R, S51F, A54S, L103V
B3: P11d4 (Fab) (Fab, V domains shown)
VH: B1 VH with S32P, D57G, D60H, S67D, S100D, T103F, A112Q
VL: B1 VL with A25P, S28R, S51M, K52R, L103V
B4: A1e9 (monoclonal antibody) (antibody, V domains shown)
VH: B1 VH with S32A, D57G, D60H, S67D, S100D, T103F, A112Q
VL: B1 VL with A25L, S28R, S51F, A54S, L103V
B5: A13c4 (Fab) (Fab, V domains shown)
VH: B1 VH with S32A, D57G, D60S, S67D, S100D, T103F, W105F, A112Q
VL: B1 VL with A25L, S28R, S51M, K52Y, L53Q, A54S, L103V
B6: P12f2 (Fab) (Fab, V domains shown)
VH: B1 VH with S32P, D60H, S67D, S100D, T103F, W105F
VL: B1 VL with A25L, S28R, S51F, K52Y, A54S, L103V
notes: also called Pf12; P1212
B7: A13a11 (Fab) (Fab, V domains shown)
VH: B1 VH with S32A, D60H, S67D, S100D, T103F
VL: B1 VL with A25P, S28R, S51Y, K52R, L53H, A54S
B8: P12f4 (Fab) (Fab, V domains shown)
VH: B1 VH with S32P, D57G, D60H, S67D, S100D, T103F, W105F, A112Q
VL: B1 VL with A25L, S28R, S51R, K52G, A54P, L103V
B9: A8c7 (monoclonal antibody) (antibody, V domains shown)
VH: B1 VH with S32A, D60S, S67D, S100D, T103F, A112Q
VL: B1 VL with A25P, S28R, S51R, K52Y, L53Q, A54S
B10: P12f4 (monoclonal antibody) (antibody, V domains shown)
VH: B1 VH with S32P, D57G, D60H, S67D, S100D, T103F, W105F, A112Q
VL: B1 VL with A25L, S28R, S51R, K52G, A54P, L103V
B11: Y10H6 (Fab) (Fab, V domains shown)
VH: B1 VH with S32A, S100D, T103F
VL: B1 VL with S51R, K52Y, A54S
B12: A4B4 (monoclonal antibody) (antibody, V domains shown)
VH: B1 VH with S32A, D60H, S67D, S100D, T103F, W105F, A112Q
VL: B1 VL with S28R, S51F, K52F, A54D
notes: also called A4B4/A4B4 (HC/LC)
B13: P12f2 (monoclonal antibody) (antibody, V domains shown)
VH: B1 VH with S32P, D60H, S67D, S100D, T103F, W105F
VL: B1 VL with A25L, S28R, S51F, K52Y, A54S, L103V
notes: also called Pf12; P1212
B14: DG (Fab) (Fab, V domains shown)
VH: B1 VH with S32A, S100D, W105F
VL: B1 VL with S51F
B15: A12a6 (monoclonal antibody) (antibody, V domains shown)
VH: B1 VH with S32A, D57G, S67D, S100D, T103F, W105F, A112Q
VL: B1 VL with S28R, S51F, A54S, L103V
B16: M3H9 (Fab) (Fab, V domains shown)
VH: B1 VH with S32A, S100D, T103F
VL: B1 VL with S51Y, L53Q, A54T
B17: P11d4 (monoclonal antibody) (antibody, V domains shown)
VH: B1 VH with S32P, D57G, D60H, S67D, S100D, T103F, A112Q
VL: B1 VL with A25P, S28R, S51M, K52R, L103V
B18: AFFF (monoclonal antibody) (antibody, V domains shown)
VH: B1 VH with S32A, W105F
VL: B1 VL with S51F, G90F
B19: H3-3F4 (Fab) (Fab, V domains shown)
VH: B1 VH with S32A, S100D, T103F
VL: B1 VL with S51F
notes: also called 113-3F4
B20: L1-7E5 (Fab) (Fab, V domains shown)
VH: B1 VH with S32A, S100D, W105F
VL: B1 VL with S28R, S51F
B21: 6H8 (Fab) (Fab, V domains shown)
VH: B1 VH with S32A, S100D, W105F
VL: B1 VL with S51F, A54T
B22: A13c4 (monoclonal antibody) (antibody, V domains shown)
VH: B1 VH with S32A, D57G, D60S, S67D, S100D, T103F, W105F, A112Q
VL: B1 VL with A25L, S28R, S51M, K52Y, L53Q, A54S, L103V

Experiments:
[1] = target: F protein (RSV F glycoprotein immobilised on the BIAcore sensor chip) (respiratory syncytial virus (RSV), UniProt P03420 26-524); assay: BIAcore, immobilised F protein
[2] = target: T1, F protein of wild type RSV A/Long (respiratory syncytial virus, strain …, UniProt P12568 26-574); assay: cell-based or functional assay
[3] = target: T1, F protein of wild type RSV A/Long; assay: cell-based or functional assay; remark: listed apart in the source
[4] = target: Bac-F (UniProt P03420 26-524); assay: BIAcore, Mab vs Bac-F, 1:1
[5] = target: T2, F protein of MARM #13 (selected with A4B4 from MARM B9) (respiratory syncytial virus, strain …, UniProt P12568 26-574); assay: IFA on MARM-infected HEp-2 cells
T2 construct: whole, on cells

[6] = target: T3, F protein of RSV A/Long MARM #11 (selected with A4B4) (respiratory syncytial virus, strain …, UniProt P12568 26-574); assay: IFA on MARM-infected HEp-2 cells
T3 construct: whole, on cells

[7] = target: T4, F protein of RSV A/Long MARM #9 (selected with A4B4) (respiratory syncytial virus, strain …, UniProt P12568 26-574); assay: IFA on MARM-infected HEp-2 cells
T4 construct: whole, on cells

[8] = target: T5, F protein of RSV A/Long MARM #10 (selected with A4B4) (respiratory syncytial virus, strain …, UniProt P12568 26-574); assay: IFA on MARM-infected HEp-2 cells
T5 construct: whole, on cells

[9] = target: T6, F protein of RSV A/Long MARM #6 (selected with A4B4) (respiratory syncytial virus, strain …, UniProt P12568 26-574); assay: IFA on MARM-infected HEp-2 cells
T6 construct: whole, on cells

| Binder | koff [1] | kon [1] | Fold Difference (Control IC50) [2] | Fold Difference (Curve IC50) [2] | Mean IC50 (Control), RSV microneutralization [2] | Mean IC50 (Curve), RSV microneutralization [2] | Kd [4] | koff [4] | kon [4] | number in parentheses after KD (fold vs SYNAGIS) [4] | also measured |
| --- | --- | --- | --- | --- | --- | --- | --- | --- | --- | --- | --- |
| B1 | 0.00065 s⁻¹ | 185000 M⁻¹ s⁻¹ |  |  |  |  |  |  |  |  |  |
| B2 | 0.00023 s⁻¹ | 743000 M⁻¹ s⁻¹ | 17 fold | 16 fold | 0.031 µg/mL | 0.0287 µg/mL |  |  |  |  | EC50, RSV (Long) microneutralization [3]: 0.62 nM |
| B3 | 0.000717 s⁻¹ | 570000 M⁻¹ s⁻¹ and 572000 M⁻¹ s⁻¹ |  |  | > 1 µg/mL | > 1 µg/mL |  |  |  |  | EC50, RSV (Long) microneutralization [3]: > 20 nM |
| B4 |  |  |  |  |  |  | 0.33 nM | 0.000143 s⁻¹ | 433000 M⁻¹ s⁻¹ | 12 fold |  |
| B5 | 0.00028 s⁻¹ | 781000 M⁻¹ s⁻¹ and 735000 M⁻¹ s⁻¹ | 21 fold | 17 fold | 0.0258 µg/mL | 0.0264 µg/mL |  |  |  |  | EC50, RSV (Long) microneutralization [3]: 0.52 nM |
| B6 | 0.000282 s⁻¹ | 663000 M⁻¹ s⁻¹ | 16 fold | 11 fold | 0.0326 µg/mL | 0.0407 µg/mL |  |  |  |  | EC50, RSV (Long) microneutralization [3]: 0.65 nM |
| B7 | 0.00025 s⁻¹ | 735000 M⁻¹ s⁻¹ |  |  |  |  |  |  |  |  |  |
| B8 | 0.000299 s⁻¹ | 527000 M⁻¹ s⁻¹ | 15 fold | 10 fold | 0.0351 µg/mL | 0.0464 µg/mL |  |  |  |  | EC50, RSV (Long) microneutralization [3]: 0.7 nM |
| B9 |  |  |  |  |  |  | 0.21 nM | 8.75e-05 s⁻¹ | 417000 M⁻¹ s⁻¹ | 19 fold |  |
| B10 |  |  | 23 fold | 19 fold | 0.0235 µg/mL | 0.0242 µg/mL | 0.11 nM | 5.55e-05 s⁻¹ | 495000 M⁻¹ s⁻¹ | 35 fold |  |
| B11 | 0.000462 s⁻¹ | 757000 M⁻¹ s⁻¹ |  |  |  |  |  |  |  |  |  |
| B12 |  |  | 35 fold | 27 fold | 0.0154 µg/mL | 0.0171 µg/mL | 0.02 nM | 1.06e-05 s⁻¹ | 434000 M⁻¹ s⁻¹ | 195 fold | binding result [5]: no binding (tested: 250 ng/ml); binding result [6]: no binding (tested: 250 ng/ml); binding result [7]: no binding (tested: 250 ng/ml); binding result [8]: no binding (tested: 250 ng/ml); binding result [9]: no binding (tested: 250 ng/ml) |
| B13 |  |  | 24 fold | 20 fold | 0.0223 µg/mL | 0.0231 µg/mL | 0.31 nM | 0.000128 s⁻¹ | 407000 M⁻¹ s⁻¹ | 13 fold |  |
| B14 | 0.000167 s⁻¹ and 0.000444 s⁻¹ |  |  |  |  |  |  |  |  |  |  |
| B15 |  |  | 15 fold | 13 fold | 0.0354 µg/mL | 0.0357 µg/mL | 0.04 nM | 1.65e-05 s⁻¹ | 460000 M⁻¹ s⁻¹ | 98 fold |  |
| B16 | 0.000338 s⁻¹ | 605000 M⁻¹ s⁻¹ |  |  |  |  |  |  |  |  |  |
| B17 |  |  | 19 fold | 21 fold | 0.0289 µg/mL | 0.0217 µg/mL | 0.62 nM | 0.000289 s⁻¹ | 466000 M⁻¹ s⁻¹ | 6 fold |  |
| B18 | 0.000274 s⁻¹ and 0.000266 s⁻¹ and 0.000206 s⁻¹ | 108000 M⁻¹ s⁻¹ and 96000 M⁻¹ s⁻¹ and 124000 M⁻¹ s⁻¹ |  |  |  |  |  |  |  |  |  |
| B19 | 0.000445 s⁻¹ and 0.000402 s⁻¹ |  |  |  |  |  |  |  |  |  |  |
| B20 | 0.000192 s⁻¹ and 0.000331 s⁻¹ and 0.000229 s⁻¹ |  |  |  |  |  |  |  |  |  |  |
| B21 | 0.000178 s⁻¹ and 0.000473 s⁻¹ | 314000 M⁻¹ s⁻¹ and 444000 M⁻¹ s⁻¹ |  |  |  |  |  |  |  |  |  |
| B22 |  |  | 14 fold | 12 fold | 0.0375 µg/mL | 0.0376 µg/mL | 0.13 nM | 3.96e-05 s⁻¹ | 300000 M⁻¹ s⁻¹ | 30 fold |  |
